{"source": "paper PMC2064659", "about": "(The Journal of Cell Biology, 2007)", "binders": {"B1": {"name": "ICAM1–intracellular tail peptide, biotinylated (peptide)", "peptide": "GRQRKIKKYRLQQAQKGTPMKPNTQATPP", "HELM": "PEPTIDE1{[O=C1N[C@H]2[C@H](CS[C@H]2CCCCC(=O)[*:2])N1].G.R.Q.R.K.I.K.K.Y.R.L.Q.Q.A.Q.K.G.T.P.M.K.P.N.T.Q.A.T.P.P}$$$$V2.0", "SMILES": "CC[C@H](C)[C@H](NC(=O)[C@H](CCCCN)NC(=O)[C@H](CCCNC(=N)N)NC(=O)[C@H](CCC(N)=O)NC(=O)[C@H](CCCNC(=N)N)NC(=O)CNC(=O)CCCC[C@@H]1SC[C@@H]2NC(=O)N[C@@H]21)C(=O)N[C@@H](CCCCN)C(=O)N[C@@H](CCCCN)C(=O)N[C@@H](Cc1ccc(O)cc1)C(=O)N[C@@H](CCCNC(=N)N)C(=O)N[C@@H](CC(C)C)C(=O)N[C@@H](CCC(N)=O)C(=O)N[C@@H](CCC(N)=O)C(=O)N[C@@H](C)C(=O)N[C@@H](CCC(N)=O)C(=O)N[C@@H](CCCCN)C(=O)NCC(=O)N[C@H](C(=O)N1CCC[C@H]1C(=O)N[C@@H](CCSC)C(=O)N[C@@H](CCCCN)C(=O)N1CCC[C@H]1C(=O)N[C@@H](CC(N)=O)C(=O)N[C@H](C(=O)N[C@@H](CCC(N)=O)C(=O)N[C@@H](C)C(=O)N[C@H](C(=O)N1CCC[C@H]1C(=O)N1CCC[C@H]1C(=O)O)[C@@H](C)O)[C@@H](C)O)[C@@H](C)O"}}, "target": "T1, GST-SH3^SGEF (amino acids 789–850) (UniProt Q96DR7 789-850)", "T1 sequence (looked up)": "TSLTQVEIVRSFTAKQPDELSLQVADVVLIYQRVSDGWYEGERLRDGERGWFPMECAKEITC", "test": "pull-down", "data": [{"binder": "B1", "values": [{"measurement": "binding result", "result": "binds"}]}]}
